Laboratory results: patent publication US20220143178A1 (SHANGHAI BAO PHARMACEUTICALS, published 2022)

target: T1, Pertuzumab-specific HER2 antigen (Rhinogen®); experiment: SPR, Biacore T200; IgG captured by anti-human Fc on CM5 chip, antigen flowed over
T1 construct: also called Pertuzumab-specific antigen (Rhinogen®)

Binder | Kd [nM] | koff [s⁻¹] | kon [M⁻¹ s⁻¹]
KJ015w (bispecific antibody, IgG-like: Trastuzumab heavy chain with a knob structure, Pertuzumab heavy chain with a hole structure, common Trastuzumab light chain; also called wild-type KJ015w antibody; wild-type) VH 1: not shown VH 2: EVQLVESGGGLVQPGGSLRLSCAASGFTFTDYTMDWVRQAPGKGLEWVADVNPNSGGSIYNQRFKGRFTLSVDRSKNTLYLQMNSLRAEDTAVYYCARNLGPSFYFDYWGQGTLVTVSS light: not shown | 267 | 0.00309 | 11600

target: T2, Trastuzumab-specific HER2 antigen (Rhinogen®); experiment: as above
T2 construct: also called Trastuzumab-specific antigen (Rhinogen®)

Binder | Kd [nM] | koff [s⁻¹] | kon [M⁻¹ s⁻¹]
KJ015w (bispecific antibody, IgG-like: Trastuzumab heavy chain with a knob structure, Pertuzumab heavy chain with a hole structure, common Trastuzumab light chain; also called wild-type KJ015w antibody; wild-type) VH 1: not shown VH 2: EVQLVESGGGLVQPGGSLRLSCAASGFTFTDYTMDWVRQAPGKGLEWVADVNPNSGGSIYNQRFKGRFTLSVDRSKNTLYLQMNSLRAEDTAVYYCARNLGPSFYFDYWGQGTLVTVSS light: not shown | 3.43 | 9.75e-05 | 28400

target: HER2 on HER2-positive tumor cells (human, UniProt P04626 23-1255); experiment: cell-based or functional assay

Binder | Maximum inhibition rate of cell proliferation (%), BT474 [%] | Maximum inhibition rate of cell proliferation (%), Calu-3 [%] | Maximum inhibition rate of cell proliferation (%), MDA-MB-175 [%] | Maximum inhibition rate of cell proliferation (%), NCI-N87 [%] | Maximum inhibition rate of cell proliferation (%), SK-BR-3 [%]
KJ015-A (bispecific antibody) VH 1: EVQLVESGGGLVQPGGSLRLSCAASGFTFTDYTMDWVRQAPGKGLEWVADVNPNSGGSIYNQRFKGRFTLSVDRSKNTLYLQMNSLRAEDTAVYYCARNLGPWFYFDYWGQGTLVTVSS VH 2: not shown light: not shown | 83.1 | 81.2 | 75.7 | 79.6 | 56.4
KJ015-B (bispecific antibody) VH 1: EVQLVESGGGLVQPGGSLRLSCAASGFTFTDYTMDWVRQAPGKGLEWVADVNPNSGGSILNRRFKGRFTLSVDRSKNTLYLQMNSLRAEDTAVYYCARNLGPNFYFDYWGQGTLVTVSS VH 2: not shown light: not shown | 84.1 | 84.6 | 75.4 | 79.2 | 57.8
KJ015-C (bispecific antibody) VH 1: EVQLVESGGGLVQPGGSLRLSCAASGFTFTDYTMDWVRQAPGKGLEWVADVNPNSGGSIYNQRFKGRFTLSVDRSKNTLYLQMNSLRAEDTAVYYCARNLGPWFYFDYWGQGTLVTVSS VH 2: not shown light: not shown | 84.8 | 82 | 81.5 | 82.5 | 58.2

target: T1, Pertuzumab-specific HER2 antigen …; experiment: ELISA; antigen coated at 2 µg/ml, HRP anti-human light chain detection

Binder | EC50 [µg/mL]
KJ015w (bispecific antibody, IgG-like: Trastuzumab heavy chain with a knob structure, Pertuzumab heavy chain with a hole structure, common Trastuzumab light chain; also called wild-type KJ015w antibody; wild-type) VH 1: not shown VH 2: EVQLVESGGGLVQPGGSLRLSCAASGFTFTDYTMDWVRQAPGKGLEWVADVNPNSGGSIYNQRFKGRFTLSVDRSKNTLYLQMNSLRAEDTAVYYCARNLGPSFYFDYWGQGTLVTVSS light: not shown | 0.352

target: T2, Trastuzumab-specific HER2 antigen …; experiment: as above

Binder | EC50 [µg/mL]
KJ015w (bispecific antibody, IgG-like: Trastuzumab heavy chain with a knob structure, Pertuzumab heavy chain with a hole structure, common Trastuzumab light chain; also called wild-type KJ015w antibody; wild-type) VH 1: not shown VH 2: EVQLVESGGGLVQPGGSLRLSCAASGFTFTDYTMDWVRQAPGKGLEWVADVNPNSGGSIYNQRFKGRFTLSVDRSKNTLYLQMNSLRAEDTAVYYCARNLGPSFYFDYWGQGTLVTVSS light: not shown | 0.0535

target: T3, HER2 extracellular domain full-length antigen (Rhinogen®) (human, UniProt P04626 23-652); experiment: SPR, Biacore T200; IgG captured by anti-human Fc on CM5 chip, HER2 ECD flowed over;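 note: IgG loaded at 2 µg/ml for capture, HER2 ECD injected at three concentrations, kinetic constants derived by curve fitting in the Biacore T200 software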
T3 construct: extracellular domain; also called full-length HER2 antigen (Rhinogen®); HER2 ECD antigen (Rhinogen®)

Binder | Kd [nM] | koff [s⁻¹] | kon [M⁻¹ s⁻¹]
Single-target anti-HER2 IgG: light chain M1 + heavy chain No. 6 (wild-type Pertuzumab heavy chain, Table 5) (antibody, V domains shown, IgG) VH: EVQLVESGGGLVQPGGSLRLSCAASGFTFTDYTMDWVRQAPGKGLEWVADVNPNSGGSIYNQRFKGRFTLSVDRSKNTLYLQMNSLRAEDTAVYYCARNLGPSFYFDYWGQGTLVTVSS VL: not shown | 50.1 | 0.00181 | 36200
Single-target anti-HER2 IgG: light chain M1 + heavy chain No. 11 (Table 5) (antibody, V domains shown, IgG; Heavy chain positions derived) VH: EVQLVESGGGLVQPGGSLRLSCAASGFTFTDYTMDWVRQAPGKGLEWVADVNPNSGGSITNQRFKGRFTLSVDRSKNTLYLQMNSLRAEDTAVYYCARNLGPFFYFDYWGQGTLVTVSS VL: not shown | 5.74 | 0.000393 | 68500
Single-target anti-HER2 IgG: light chain M1 + heavy chain No. 12 (Table 5) (antibody, V domains shown, IgG; Heavy chain positions derived) VH: EVQLVESGGGLVQPGGSLRLSCAASGFTFTDYTMDWVRQAPGKGLEWVADVNPNSGGSILNRRFKGRFTLSVDRSKNTLYLQMNSLRAEDTAVYYCARNLGPFFYFDYWGQGTLVTVSS VL: not shown | 3.35 | 0.000253 | 75400
Single-target anti-HER2 IgG: light chain M1 + heavy chain No. 2 (Table 5) (antibody, V domains shown, IgG) VH: EVQLVESGGGLVQPGGSLRLSCAASGFTFTDYTMDWVRQAPGKGLEWVADVNPNSGGSILNRRFKGRFTLSVDRSKNTLYLQMNSLRAEDTAVYYCARNLGPNFYFDYWGQGTLVTVSS VL: not shown | 4.97 | 0.000261 | 52500
Single-target anti-HER2 IgG: light chain N30S M1 + heavy chain No. 1 (Table 5) (antibody, V domains shown, IgG; Heavy chain position derived) VH: EVQLVESGGGLVQPGGSLRLSCAASGFTFTDYTMDWVRQAPGKGLEWVADVNPNSGGSIYNQRFKGRFTLSVDRSKNTLYLQMNSLRAEDTAVYYCARNLGPWFYFDYWGQGTLVTVSS VL: not shown | 5.05 | 0.000284 | 56200
Single-target anti-HER2 IgG: light chain M1 + heavy chain No. 9 (Table 5) (antibody, V domains shown, IgG; Heavy chain positions derived) VH: EVQLVESGGGLVQPGGSLRLSCAASGFTFTDYTMDWVRQAPGKGLEWVADVNPNSGGSIINQRFKGRFTLSVDRSKNTLYLQMNSLRAEDTAVYYCARNLGPFFYFDYWGQGTLVTVSS VL: not shown | 5.66 | 0.000386 | 68300
Single-target anti-HER2 IgG: light chain N30S M1 + heavy chain No. 4 (Table 5) (antibody, V domains shown, IgG; Heavy chain positions derived) VH: EVQLVESGGGLVQPGGSLRLSCAASGFTFTDYTMDWVRQAPGKGLEWVADVNPNSGGSIFNQRFKGRFTLSVDRSKNTLYLQMNSLRAEDTAVYYCARNLGPWFYFDYWGQGTLVTVSS VL: not shown | 3.18 | 0.000202 | 63600
Single-target anti-HER2 IgG: light chain M2 + heavy chain No. 3 (Table 5) (antibody, V domains shown, IgG) VH: EVQLVESGGGLVQPGGSLRLSCAASGFTFTDYTMDWVRQAPGKGLEWVADVNPNSGGSILNVRFKGRFTLSVDRSKNTLYLQMNSLRAEDTAVYYCARNLGPWFYFDYWGQGTLVTVSS VL: DIQMTQSPSSLSASVGDRVTITCRASQDVNTAVAWYQQKPGKAPKLLIYSASYRYTGVPSRFSGSRSGTDFTLTISSLQPEDFATYYCQQHYTTPPTFGQGTKVEIKR | 2.57 | 0.000152 | 59300
Single-target anti-HER2 IgG: light chain M1 + heavy chain No. 4 (Table 5) (antibody, V domains shown, IgG; positions derived) VH: EVQLVESGGGLVQPGGSLRLSCAASGFTFTDYTMDWVRQAPGKGLEWVADVNPNSGGSIFNQRFKGRFTLSVDRSKNTLYLQMNSLRAEDTAVYYCARNLGPWFYFDYWGQGTLVTVSS VL: not shown | 3.05 | 0.000199 | 65100
Single-target anti-HER2 IgG: light chain M1 + heavy chain No. 5 (Table 5) (antibody, V domains shown, IgG; positions derived) VH: EVQLVESGGGLVQPGGSLRLSCAASGFTFTDYTMDWVRQAPGKGLEWVADVNPNSGGSIFNHRFKGRFTLSVDRSKNTLYLQMNSLRAEDTAVYYCARNLGPWFYFDYWGQGTLVTVSS VL: not shown | 2.02 | 0.000143 | 71000
Single-target anti-HER2 IgG: light chain M1 + heavy chain No. 14 (Table 5) (antibody, V domains shown, IgG; Heavy chain positions derived) VH: EVQLVESGGGLVQPGGSLRLSCAASGFTFTDYTMDWVRQAPGKGLEWVADVNPNSGGSILNRRFKGRFTLSVDRSKNTLYLQMNSLRAEDTAVYYCARNLGPYFYFDYWGQGTLVTVSS VL: not shown | 9.38 | 0.000607 | 64700
Single-target anti-HER2 IgG: light chain M1 + heavy chain No. 13 (Table 5) (antibody, V domains shown, IgG; Heavy chain positions derived) VH: EVQLVESGGGLVQPGGSLRLSCAASGFTFTDYTMDWVRQAPGKGLEWVADVNPNSGGSILNRRFKGRFTLSVDRSKNTLYLQMNSLRAEDTAVYYCARNLGPLFYFDYWGQGTLVTVSS VL: not shown | 8.98 | 0.000409 | 45500
Single-target anti-HER2 IgG: light chain M1 + heavy chain No. 1 (Table 5) (antibody, V domains shown, IgG) VH: EVQLVESGGGLVQPGGSLRLSCAASGFTFTDYTMDWVRQAPGKGLEWVADVNPNSGGSIYNQRFKGRFTLSVDRSKNTLYLQMNSLRAEDTAVYYCARNLGPWFYFDYWGQGTLVTVSS VL: not shown | 4.99 | 0.000312 | 62600
Single-target anti-HER2 IgG: light chain N30S M1 + heavy chain No. 2 (Table 5) (antibody, V domains shown, IgG; Heavy chain positions derived) VH: EVQLVESGGGLVQPGGSLRLSCAASGFTFTDYTMDWVRQAPGKGLEWVADVNPNSGGSILNRRFKGRFTLSVDRSKNTLYLQMNSLRAEDTAVYYCARNLGPNFYFDYWGQGTLVTVSS VL: not shown | 5.04 | 0.000272 | 53900
Single-target anti-HER2 IgG: light chain N30S M2 + heavy chain No. 3 (Table 5) (antibody, V domains shown, IgG; Heavy chain positions derived) VH: EVQLVESGGGLVQPGGSLRLSCAASGFTFTDYTMDWVRQAPGKGLEWVADVNPNSGGSILNVRFKGRFTLSVDRSKNTLYLQMNSLRAEDTAVYYCARNLGPWFYFDYWGQGTLVTVSS VL: DIQMTQSPSSLSASVGDRVTITCRASQDVSTAVAWYQQKPGKAPKLLIYSASYRYTGVPSRFSGSRSGTDFTLTISSLQPEDFATYYCQQHYTTPPTFGQGTKVEIKR | 2.68 | 0.000155 | 58000
Single-target anti-HER2 IgG: light chain N30S M1 + heavy chain No. 5 (Table 5) (antibody, V domains shown, IgG; Heavy chain positions derived) VH: EVQLVESGGGLVQPGGSLRLSCAASGFTFTDYTMDWVRQAPGKGLEWVADVNPNSGGSIFNHRFKGRFTLSVDRSKNTLYLQMNSLRAEDTAVYYCARNLGPWFYFDYWGQGTLVTVSS VL: not shown | 2.09 | 0.000145 | 69600
Single-target anti-HER2 IgG: light chain M1 + heavy chain No. 10 (Table 5) (antibody, V domains shown, IgG; Heavy chain positions derived) VH: EVQLVESGGGLVQPGGSLRLSCAASGFTFTDYTMDWVRQAPGKGLEWVADVNPNSGGSIMNQRFKGRFTLSVDRSKNTLYLQMNSLRAEDTAVYYCARNLGPFFYFDYWGQGTLVTVSS VL: not shown | 6.58 | 0.000447 | 67900
Single-target anti-HER2 IgG: light chain N30S M2 + heavy chain No. 7 (Trastuzumab heavy chain, Table 5) (antibody, V domains shown, IgG) VH: not shown VL: DIQMTQSPSSLSASVGDRVTITCRASQDVSTAVAWYQQKPGKAPKLLIYSASYRYTGVPSRFSGSRSGTDFTLTISSLQPEDFATYYCQQHYTTPPTFGQGTKVEIKR | 0.914 | 9.87e-05 | 108000
